Source: patent US20120220530A1 (NOVOZYMES BIOPHARMA DK A S, published 2012)

Tests used:
[1] = biological target: T1, glutathione-S-transferase (GST)-fused shFcRn (human, UniProt P55899 24-290; P61769 21-119, limits assumed); test: ELISA: albumin coated at the concentration on the axis, shFcRn-GST in solution, pH 6.0
T1 construct: Made as in Berntzen et al. 2005 / FEBS J. 2008; also called shFcRn-GST; GST-tagged shFcRn; not shown: GST tag
Protocol: One hundred μl of the substrate tetramethylbenzidine (TMB) (Calbiochem) was added to each well and incubated for 45 min before 100 μl of 0.25 M HCl was added. The absorbance was measured at 450 nm using a Sunrise TECAN spectrophotometer (TECAN, Maennedorf, Switzerland). The same ELISA was repeated with PBS/T pH 7.4.
Commercially available animal albumin (either Sigma-Aldrich or Calbiochem) were further purified as described in Andersen et al (2010). J. Biol. Chem. 285, (7), 4826-4836.

mouse serum albumin = biological target: T2, mouse serum albumin (mouse, UniProt P07724 25-608); test: SPR, FcRn immobilized, 1:1 Langmuir model
T2 construct: mature; also called MSA; MouseSA
Protocol: SPR analyses were performed on a BIAcore 3000 instrument (GE Healthcare) using CM5 chips and immobilization of smFcRn-GST and shFcRn-GST variants or smFcRn was performed using the amine coupling kit (GE Healthcare). Protein samples (10 μg/ml) were injected in 10 mM sodium acetate at pH 4.5 (GE Healthcare), all as described by the manufacturer. Unreacted moieties on the surface were blocked with 1 M ethanolamine. For all experiments, phosphate buffer (67 mM phosphate buffer, 0.15 M NaCl, 0.005% TWEEN® 20) at pH 6.0 or pH 7.4, or HBS-P buffer (0.01 M HEPES, 0.15 M NaCl, 0.005% surfactant P20) at pH 7.4 were used as running buffer or dilution buffer. Kinetic measurements were performed using a low density immobilized surface (100-200 resonance units (RU)). […] In all cases, to correct for nonspecific binding and bulk buffer effects, responses obtained from the control surfaces and blank injections were subtracted from each interaction curve. Kinetic rate values were calculated using predefined models (Langmuir 1:1 ligand model, heterogeneous ligand model and steady state affinity model) provided by the BIAevaluation 4.1 software.
The KD's were generated using the B|Aevaluation 4.1 software) A Langmuir 1:1 ligand model was used throughout. The kinetic values represent the average or triplicates. ND means: Not determined. NA means: Not acquired

T1 sequence (P55899 24-290 limits assumed, chain 1 of 2): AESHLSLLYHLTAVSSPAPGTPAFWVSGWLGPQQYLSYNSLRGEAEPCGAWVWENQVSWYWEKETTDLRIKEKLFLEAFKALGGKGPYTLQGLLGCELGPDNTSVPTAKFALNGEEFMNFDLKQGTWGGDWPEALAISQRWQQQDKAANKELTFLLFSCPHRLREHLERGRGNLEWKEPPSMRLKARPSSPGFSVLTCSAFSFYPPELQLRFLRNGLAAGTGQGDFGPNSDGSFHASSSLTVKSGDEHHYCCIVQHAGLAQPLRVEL
T1 sequence (P61769 21-119 limits assumed, chain 2 of 2): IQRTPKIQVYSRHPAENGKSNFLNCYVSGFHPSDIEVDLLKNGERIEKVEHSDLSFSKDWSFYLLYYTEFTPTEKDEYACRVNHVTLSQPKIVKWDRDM

Binder | EC50 (read off the curve) [1] [µg/mL] | Kd (mouse serum albumin) [µM] | koff (mouse serum albumin) [s⁻¹] | kon (mouse serum albumin) [M⁻¹ s⁻¹]
donkey serum albumin (ligand, UniProt Q5XLE4 25-607, looked up, mature) DTHKSEIAHRFNDLGEKHFKGLVLVAFSQYLQQCPFEDHVKLVNEVTEFAKKCAADESAENCDKSLHTLFGDKLCTVATLRATYGELADCCEKQEPERNECFLTHKDDHPNLPKLKPEPDAQCAAFQEDPDKFLGKYLYEVARRHPYFYGPELLFHAEEYKADFTECCPADDKAGCLIPKLDALKERILLSSAKERLKCSSFQKFGERAFKAWSVARLSQKFPKADFAEVSKIVTDLTKVHKECCHGDLLECADDRADLTKYICEHQDSISGKLKACCDKPLLQKSHCIAEVKEDDLPSDLPALAADFAEDKEICKHYKDAKDVFLGTFLYEYSRRHPDYSVSLLLRIAKTYEATLEKCCAEADPPACYATVFDQFTPLVEEPKSLVKKNCDLFEEVGEYDFQNALIVRYTKKAPQVSTPTLVEIGRTLGKVGSRCCKLPESERLPCSENHLALALNRLCVLHEKTPVSEKITKCCTDSLAERRPCFSALELDEGYIPKEFKAETFTFHADICTLPEDEKQIKKQSALAELVKHKPKATKEQLKTVLGNFSAFVAKCCGAEDKEACFAEEGPKLVASSQLALA | ~1 | – | – | –
soluble mouse FcRn (smFcRn) (receptor) chain 1: SETRPPLMYHLTAVSNPSTGLPSFWATGWLGPQQYLTYNSLRQEADPCGAWMWENQVSWYWEKETTDLKSKEQLFLEALKTLEKILNGTYTLQGLLGCELASDNSSVPTAVFALNGEEFMKFNPRIGNWTGEWPETEIVANLWMKQPDAARKESEFLLNSCPERLLGHLERGRRNLEWKEPPSMRLKARPGNSGSSVLTCAAFSFYPPELKFRFLRNGLASGSGNCSTGPNGDGSFHAWSLLEVKRGDEHHYQCQVEHEGLAQPLTVDLDSSARSS chain 2: IQKTPQIQVYSRHPPENGKPNILNCYVTQFHPPHIEIQMLKNGKKIPKVEMSDMSFSKDWSFYILAHTEFTPTETDTYACRVKHASMAEPKTVYWDRDM | – | 9.3 | 0.0394 | 4200
